In the data set the test system is MS2 coat protein. The data set can be described thus: apparent KD of MS2 coat protein; designed switch direction (-1 OFF switch, 1 ON switch): -1; higher = weaker reporter binding. The procedure, abridged: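 The apparent KD reported per design is the median over clusters of curve fits to normalised cluster fluorescence. The RNA switches were transcribed on Illumina chips by stalled E. coli RNA polymerase. SNAP-549-labelled MS2 coat protein was titrated from 0.7 or 1.5 nM, doubling up to 3 µM, in Tris-HCl pH 7.5 buffer containing KCl, MgCl2, BSA, DTT, tRNA and Tween-20, with no input, 200 uM small-molecule ligand, or an oligonucleotide input.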

The mark [1] stands for this setting: Eterna round: R95, input ligand: microRNA oligo, concentration not stated.
The mark [2] stands for this setting: Eterna round: R95, input ligand: FMN 200 uM.
Setting [3] is: Eterna round: R95, input ligand: none.
Setting [4] is: input ligand: microRNA oligo, concentration not stated.

Regarding “AGCGAGGCAGGAUAUACAUGAGGAUCACCCAUGUGCUUGUAUGGCGUGGAACAUCGUAGUAGAAGGGCCGCGCC [EX3 #77] (Eterna round: R97, puzzle: Exclusion 3)”, the “apparent KD of MS2 coat protein” value turned out to be 28.4 nM (input ligand: FMN 200 uM) and 22.2 nM (input ligand: none).
As to “CCCUCACAUGAGGAUCACCCAUGUCAGGAUAUUCGGCGGUCAAUUGACCGCCUUAAAGGAAGAAGGGACGUAAA [Masore] (puzzle: Exclusion 1)”, the “apparent KD of MS2 coat protein” value under setting [1] stood at 11.8 nM.
Consider “AAAAUUGGUGAGGAUAUGCAGAUGCGCAAUGUCGCAGAAGGCACCACAUGAGGAUCACCCAUGUGUCCUCUAAA [EX6 A.19] (Eterna round: R97, puzzle: Exclusion 6)”, for which the “apparent KD of MS2 coat protein” value was determined as 34 nM (input ligand: FMN 200 uM) and 19.8 nM (input ligand: none).
Take “AAGAAACAUGAGGAUCACCCAUGUGAGGAUAUAGAAAAGAAAGAAAGAAAGAAAGAAACUAGAAGGCACAAAGA [It's All Mine] (puzzle: Exclusion 1)”: the “apparent KD of MS2 coat protein” value runs as follows: under setting [2], 24.6 nM; under setting [1], 39.2 nM; under setting [3], 26.1 nM.
Regarding “UGAACCCAUGUUAGGAUAUCAGGCCGAGGAAGUUCUGAGAAGGGACAUGAGGAUCACCCAUGUAUAAAAGAAAC [Veontiinge] (Eterna round: R96, puzzle: Brourd's mod of Exclusion 4)”, the “apparent KD of MS2 coat protein” value is, setting by setting: (input ligand: FMN 200 uM) 44.1 nM; under setting [4], 44.6 nM; (input ligand: none) 51.7 nM.
Take “AAUAAUGAACGAGCUUUUUACAUGAGGAUCACCCAUGUCCUCUGCUCGUCUUGUCUUGGGCUUUUUUUGGGUUCGGG [-22.1, -44.7 kcal, A 17%] (Eterna round: R97, puzzle: Sensor, turn-off variant 1)”: the “apparent KD of MS2 coat protein” value reads like this: (input ligand: FMN 200 uM) 331 nM; (input ligand: none) 338 nM.
In the case of “CUACUACAUGAGGAUCACCCAUGUGAGGAUAUCAGUGGUGCUGCUAGGUAGUCCGGACUGAGAAGGCGCAUAGU [Mod-Malcom] (Eterna round: R97, puzzle: Exclusion 1)”, the “apparent KD of MS2 coat protein” value is, setting by setting: (input ligand: FMN 200 uM) 43.1 nM; (input ligand: none) 52.8 nM.
With “GGUGUGAGGCAGGAUAUGCAAUAAGUAAGUAAAGCAGAAGGGUCUACAUGAGGAUCACCCAUGUGUGCGGUAGA [Ex6 #1] (Eterna round: R97, puzzle: Exclusion 6)”, the “apparent KD of MS2 coat protein” value runs as follows: (input ligand: FMN 200 uM) 249 nM; (input ligand: none) 163 nM.
Taken in the same sequence, the figures for “GAUUAACAUGAGGAUCACCCAUGUGAGGAUAUGGAAUGGCUCAUUGUUUGAUUCCCGUCUAGAAGGCACAUCUU [1986#7] (Eterna round: R97, puzzle: Exclusion 1)” were 150 nM and 116 nM.
On to “CCUCGUGCACGAGGAUAUUGGAAAGGAAGUGUACGAGAAGGCGUGCCGAGGGAACAUGAGGAUCACCCAUGUGGCCUCAUCACA [PowerStrip EXNG 1.13] (Eterna round: R96, puzzle: Exclusion NG 1)”, for which the “apparent KD of MS2 coat protein” value by setting is: (input ligand: FMN 200 uM) 120 nM; under setting [4], 97.5 nM; (input ligand: none) 152 nM.
For “GGAUCGAAUGUGAGGAUAUGCUGGUCCUUGGAUCAGCAGAAGGCACAUGAGGAUCACCCAUGUGACCAAGAUCC [Eli bmx4 4.73] (Eterna round: R97, puzzle: Brourd's mod of Exclusion 4)”, the “apparent KD of MS2 coat protein” value is 450 nM (input ligand: FMN 200 uM) and 44.1 nM (input ligand: none).
Consider “CAUAUGUGAGGAUAUGACAAUGGUAUCUUCGGAUACCAUUGUCAGAAGGCACAUGAGGAUCACCCAUGUGGAUC [Exclusion 4 - Mod Brourd Ex 4-3: 20 v.5] (puzzle: Exclusion 4)”, for which the “apparent KD of MS2 coat protein” value under setting [1] came out at 151 nM.
Consider “GGUUGGCGAGGAUAUACAUGAGGAUCACCCAUGUGGUCCUGUGGCUGGAAAAACCUUUGUAGAAGGCGCGGGUC [salish99_ex3_r4_028] (Eterna round: R97, puzzle: Exclusion 3)”, for which the “apparent KD of MS2 coat protein” value amounted to 258 nM (input ligand: FMN 200 uM) and 184 nM (input ligand: none).
On to “GGAUCACAUGUCAGGAUAUGCUGGUCCUUGGAUCAGCAGAAGGGACAUGAGGAUCACCCAUGUCAUGAAGAUCC [Eli bmx4 4.80] (Eterna round: R97, puzzle: Brourd's mod of Exclusion 4)”, for which the “apparent KD of MS2 coat protein” value by setting is: (input ligand: FMN 200 uM) 1020 nM; (input ligand: none) 139 nM.
In the case of “UAUAAGCUAGGAUAUACUGGCACACAACUCAUAAAUCCACGACAUGAGGAUCACCCAUGUAGAAGGAGCAAAUA [EX2 A.27] (Eterna round: R97, puzzle: Exclusion 2)”, the “apparent KD of MS2 coat protein” value was found to be 18.8 nM (input ligand: FMN 200 uM) and 14.4 nM (input ligand: none).
For “UCACCGCAAGGAUAUACUUGCGGUGAUGUUCGAAAUCUUCUACUUGAGGAUCACCCAAGUAGAAGGUGCGGUGA [jl-ex2.4.66 ViennaUCT mod] (Eterna round: R97, puzzle: Exclusion 2)”, in that order: 14.3 nM and 12.8 nM.
Take “UCACGGGACUGAGGAUAUACAUCAACAAUGGUUGUAGAAGGCAGAAGGUUGAAUCAUAUACUAAACAUGAGGAUCACCCAUGUU [JR_ExcNG1_Sub031] (Eterna round: R96, puzzle: Exclusion NG 1)”: the “apparent KD of MS2 coat protein” value was determined as 16.4 nM (input ligand: FMN 200 uM), 16.6 nM under setting [4] and 24.1 nM (input ligand: none).
For “UUCUAACGAGGAUAUCGAUGGUGGAACAUGAGGAUCACCCAUGUAUGAGAUAUUGUAGUUCGAGAAGGCGUUCAGU [JR_E5_Sub057] (Eterna round: R96, puzzle: Exclusion 5)”, the “apparent KD of MS2 coat protein” value reads like this: (input ligand: FMN 200 uM) 35.9 nM; under setting [4], 32.3 nM; (input ligand: none) 48.6 nM.
Consider “AGCGAAUAGCUAGGAUAUGAGAAUAGAUAGAGCUCAGAAGGAGCACAUGAGGAUCACCCAUGUAAAGUCUUGAGGCUGCGUGGU [Prohibition 16 - Jieux - Exclusion NG 1] (Eterna round: R96, puzzle: Exclusion NG 1)”, for which the “apparent KD of MS2 coat protein” value is 79.5 nM (input ligand: FMN 200 uM), 27.2 nM under setting [4] and 66.3 nM (input ligand: none).
Take “CAGUACUGAGGAUAUACAUGAGGAUCACCCAUGUGCUCUAGCUAGGAUACUAGCAUUAGUAGAAGGCAGUACUG [Fiskers Ex 3 828 mod 8] (puzzle: Exclusion 3)”: the “apparent KD of MS2 coat protein” value under setting [1] was determined as 15.2 nM.
As to “CUCAAAAGUCGGUUUACACACAUGAGGAUCACCCAUGUAAGCAAACAUAUAGGCUCUACGAUUUGCUCGCUCUUAUA [Eternabot (L1) Solution 34] (Eterna round: R97, puzzle: Sensor, turn-off variant 1)”, the “apparent KD of MS2 coat protein” value worked out at 13.5 nM (input ligand: FMN 200 uM) and 13.2 nM (input ligand: none).
Consider “AAGGGUACUUUCGGAACGACAUGAGGAUCACCCAUGUAUACUGAGGAUAUCCACUACUAAGGACGGGAGAAGGCAGUGUACUGU [Ex NG3 #79] (Eterna round: R96, puzzle: Exclusion NG 3)”, for which the “apparent KD of MS2 coat protein” value runs as follows: (input ligand: FMN 200 uM) 26.1 nM; under setting [4], 12.6 nM; (input ligand: none) 16.6 nM.
Consider “GAUUGACAUGAGGAUCACCCAUGUGAGGAUAUCGGCUGGACCGUGUUGGCUUCCGUUUCGAGAAGGCGCAUAGG [Exclusion 1 V44] (puzzle: Exclusion 1)”, for which the “apparent KD of MS2 coat protein” value under setting [1] came to 23.2 nM.
“CCCUCACAUGAGGAUCACCCAUGUCAGGAUAUUCAAAGCGCAAAUGCGCCAAAUGCAGGAAGAAGGGACGUGCC [Bisoar] (Eterna round: R96, puzzle: Exclusion 1)”: the “apparent KD of MS2 coat protein” value is 18.6 nM (input ligand: FMN 200 uM), 10.3 nM under setting [4] and 15 nM (input ligand: none).
As for “GAGAAACAUGAGGAUCACCCAUGUGAGGAUAUGAAAAAGAAAAGAAAAGAAAGAAGAAUCAGAAGGCACAAAGA [salish99-ex1_r3_084] (puzzle: Exclusion 1)”, the “apparent KD of MS2 coat protein” value under setting [2] was found to be 28.1 nM, the “apparent KD of MS2 coat protein” value under setting [1] turned out to be 27.9 nM and the “apparent KD of MS2 coat protein” value under setting [3] was 38.9 nM.
With “AACAAGCUUUAAAGAUCCCACAUGAGGAUCACCCAUGUGCUCGUCUUGUAACGUACUGUGACGAAAGUCACGGUACG [JL TOV1 3.28] (Eterna round: R97, puzzle: Sensor, turn-off variant 1)”, the “apparent KD of MS2 coat protein” value reads like this: (input ligand: FMN 200 uM) 24.6 nM; (input ligand: none) 23.9 nM.
On to “AAGAAACAUGAGGAUCACCCAUGUGAGGAUAUGAUGAAGAAAAGAAAAGAAAGAAGAGUCAGAAGGCACAAAGG [salish99-ex1_r3_064] (puzzle: Exclusion 1)”, for which the “apparent KD of MS2 coat protein” value stood at 96 nM under setting [2], 55.9 nM under setting [1] and 69.2 nM under setting [3].
Consider “UCAAGUAUGUAGGAUAUGAUGUGAUUGUACAUAUCAGAAGGACGUACAUGAGGAUCACCCAUGUAACUUGCAUG [Exclusion 6 - B - 12:b] (puzzle: Exclusion 6)”, for which the “apparent KD of MS2 coat protein” value reads like this: under setting [2], 43.1 nM; under setting [1], 144 nM; under setting [3], 144 nM.
As to “ACUUAUUGAGGAUAUACAUUAAUUUACAUGAGGAUCACCCAUGUUCUUCAAUGUAUAUAUGUAGAAGGCAGAAGAA [JL-ex5-4.30 Malcolm mod] (Eterna round: R97, puzzle: Exclusion 5)”, the “apparent KD of MS2 coat protein” value was 29.3 nM (input ligand: FMN 200 uM) and 14 nM (input ligand: none).
For “GCGGACAAGAUCGCGAGAUCAGAGACAUGAGGAUCACCCAUGUAGGAUAUCGAUUCGAAACGAAUCGAGAAGGGCAUAGUCCGC [JL denovo 5] (Eterna round: R96, puzzle: Exclusion NG 3)”, the “apparent KD of MS2 coat protein” value is 17.3 nM (input ligand: FMN 200 uM), 11.6 nM under setting [4] and 19.4 nM (input ligand: none).
For “CUGAAUCGAGGAUAUACAUGAGGAUCACCCAUGUAUACUGUCUUGGUGAGAGUCCCGUGUAGAAGGCGACAGGC [EX3 B.6] (Eterna round: R97, puzzle: Exclusion 3)”, the “apparent KD of MS2 coat protein” value came to 60.1 nM (input ligand: FMN 200 uM) and 35.9 nM (input ligand: none).

Values taken from the supplement of paper PMC9170038.
